We go through five sequences from the supplement of paper PMC5998384.

In series [1] the test system is HeLa Kyoto. Put plainly: solubility change mitosis vs G1/S (difference of NP-40 vs SDS log2 ratios) (log2 ratio difference); higher = more soluble in mitosis.
For series [2], the system named is HeLa Kyoto. The experiment in a line: melting temperature (median over replicates), in situ; higher = more thermally stable.
In series [3] the test system is HeLa Kyoto. The experiment in a line: thermal stability score vs G1/S (z-score of summed log2 fold changes over temperatures); higher = more thermally stable than in G1/S.
Series [4] deals with HeLa Kyoto. Put plainly: solubility in G1/S (NP-40 vs SDS abundance) (log2 ratio); higher = more soluble. Conditions: cell cycle stage: G1/S.
The mark [5] stands for this setting: cell cycle stage: early G1 (4.5 h after nocodazole release).
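Wherever melting temperature (median over replicates), in situ is given: HeLa Kyoto cells synchronized by double thymidine or nocodazole block, proteins quantified by TMT10plex mass spectrometry, three independent biological replicates.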
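Wherever solubility change mitosis vs G1/S (difference of NP-40 vs SDS log2 ratios) is given: synchronized HeLa Kyoto cells (double thymidine block for G1/S, nocodazole release for mitosis), protein amounts in NP-40 versus SDS lysates quantified by mass spectrometry, three biological replicates.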
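Wherever solubility in G1/S (NP-40 vs SDS abundance) is given: HeLa Kyoto cells arrested at G1/S by double thymidine block, proteins quantified by TMT10plex mass spectrometry in mild NP-40 versus SDS extracts, three biological replicates.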
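Wherever thermal stability score vs G1/S (z-score of summed log2 fold changes over temperatures) is given: synchronized HeLa Kyoto cells, proteins quantified by TMT10plex mass spectrometry, three biological replicates, mitosis taken 0.5 h after nocodazole release, G1/S directly after double thymidine block.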

On to “MESAAALHFSRPASLLLLLLSLCALVSAQFIVVGPTDPILATVGENTTLRCHLSPEKNAEDMEVRWFRSQFSPAVFVYKGGRERTEEQMEEYRGRTTFVSKDISRGSVALVIHNITAQENGTYRCYFQEGRSYDEAILHLVVAGLGSKPLISMRGHEDGGIRLECISRGWYPKPLTVWRDPYGGVAPALKEVSMPDADGLFMVTTAVIIRDKSVRNMSCSINNTLLGQKKESVIFIPESFMPSVSPCAVALPIIVVILMIPIAVCIYWINKLQKEKKILSGEKEFERETREIALKELEKERVQKEEELQVKEKLQEELRWRRTFLHAVDVVLDPDTAHPDLFLSEDRRSVRRCPFRHLGESVPDNPERFDSQPCVLGRESFASGKHYWEVEVENVIEWTVGVCRDSVERKGEVLLIPQNGFWTLEMHKGQYRAVSSPDRILPLKESLCRVGVFLDYEAGDVSFYNMRDRSHIYTCPRSAFSVPVRPFFRLGCEDSPIFICPALTGANGVTVPEEGLTLHRVGTHQSL [BTN2A1]”, for which the “solubility change mitosis (log2)” value in the series with HeLa Kyoto [1] was -0.101. In addition, the values for the melting temperature in the series on HeLa Kyoto [2] (cell cycle stage: G1/S) and with HeLa Kyoto [2] (cell cycle stage: mitosis) were 52.7 °C and 53.4 °C, respectively. Moreover, the thermal stability score with HeLa Kyoto [3] (setting [5]) was -0.399; in the series on HeLa Kyoto [3] (cell cycle stage: mitosis) it was -0.343. Besides, in the series on HeLa Kyoto [4], the “solubility in G1/S (log2)” value was -0.062.
On to “MESGAYGAAKAGGSFDLRRFLTQPQVVARAVCLVFALIVFSCIYGEGYSNAHESKQMYCVFNRNEDACRYGSAIGVLAFLASAFFLVVDAYFPQISNATDRKYLVIGDLLFSALWTFLWFVGFCFLTNQWAVTNPKDVLVGADSVRAAITFSFFSIFSWGVLASLAYQRYKAGVDDFIQNYVDPTPDPNTAYASYPGASVDNYQQPPFTQNAETTEGYQPPPVY [SYNGR2]”, for which the “solubility change mitosis (log2)” value with HeLa Kyoto [1] was -0.171. The melting temperature is 54.9 °C with HeLa Kyoto [2] (cell cycle stage: G1/S) and 56.3 °C with HeLa Kyoto [2] (cell cycle stage: mitosis). Besides, the thermal stability score with HeLa Kyoto [3] (setting [5]) is -2; in the series with HeLa Kyoto [3] (cell cycle stage: mitosis), -3.51. For the same sequence, the “solubility in G1/S (log2)” value in the series with HeLa Kyoto [4] was 0.192.
Regarding “MESRKLISATDIQYSGSLLNSLNEQRGHGLFCDVTVIVEDRKFRAHKNILSASSTYFHQLFSVAGQVVELSFIRAEIFAEILNYIYSSKIVRVRSDLLDELIKSGQLLGVKFIAELGVPLSQVKSISGTAQDGNTEPLPPDSGDKNLVIQKSKDEAQDNGATIMPIITESFSLSAEDYEMKKIIVTDSDDDDDDVIFCSEILPTKETLPSNNTVAQVQSNPGPVAISDVAPSASNNSPPLTNITPTQKLPTPVNQATLSQTQGSEKLLVSSAPTHLTPNIILLNQTPLSTPPNVSSSLPNHMPSSINLLVQNQQTPNSAILTGNKANEEEEEEIIDDDDDTISSSPDSAVSNTSLVPQADTSQNTSFDGSLIQKMQIPTLLQEPLSNSLKISDIITRNTNDPGVGSKHLMEGQKIITLDTATEIEGLSTGCKVYANIGEDTYDIVIPVKDDPDEGEARLENEIPKTSGSEMANKRMKVKHDDHYELIVDGRVYYICIVCKRSYVCLTSLRRHFNIHSWEKKYPCRYCEKVFPLAEYRTKHEIHHTGERRYQCLACGKSFINYQFMSSHIKSVHSQDPSGDSKLYRLHPCRSLQIRQYAYLSDRSSTIPAMKDDGIGYKVDTGKEPPVGTTTSTQNKPMTWEDIFIQQENDSIFKQNVTDGSTEFEFIIPESY [ZBTB33]”, the “solubility change mitosis (log2)” value in the series with HeLa Kyoto [1] is -0.162. Further, the results for the melting temperature with HeLa Kyoto [2] (cell cycle stage: G1/S) and in the series on HeLa Kyoto [2] (cell cycle stage: mitosis) were 46.4 °C and 51.6 °C, respectively. In addition, the values for the thermal stability score in the series on HeLa Kyoto [3] (setting [5]) and in the series with HeLa Kyoto [3] (cell cycle stage: mitosis) were 1.76 and 3.1, respectively. Moreover, in the series on HeLa Kyoto [4], the “solubility in G1/S (log2)” value was -0.035.
Turning to “MESYHKPDQQKLQALKDTANRLRISSIQATTAAGSGHPTSCCSAAEIMAVLFFHTMRYKSQDPRNPHNDRFVLSKGHAAPILYAVWAEAGFLAEAELLNLRKISSDLDGHPVPKQAFTDVATGSLGQGLGAACGMAYTGKYFDKASYRVYCLLGDGELSEGSVWEAMAFASIYKLDNLVAILDINRLGQSDPAPLQHQMDIYQKRCEAFGWHAIIVDGHSVEELCKAFGQAKHQPTAIIAKTFKGRGITGVEDKESWHGKPLPKNMAEQIIQEIYSQIQSKKKILATPPQEDAPSVDIANIRMPSLPSYKVGDKIATRKAYGQALAKLGHASDRIIALDGDTKNSTFSEIFKKEHPDRFIECYIAEQNMVSIAVGCATRNRTVPFCSTFAAFFTRAFDQIRMAAISESNINLCGSHCGVSIGEDGPSQMALEDLAMFRSVPTSTVFYPSDGVATEKAVELAANTKGICFIRTSRPENAIIYNNNEDFQVGQAKVVLKSKDDQVTVIGAGVTLHEALAAAELLKKEKINIRVLDPFTIKPLDRKLILDSARATKGRILTVEDHYYEGGIGEAVSSAVVGEPGITVTHLAVNRVPRSGKPAELLKMFGIDRDAIAQAVRGLITKA [TKT]”, the “solubility change mitosis (log2)” value in the series with HeLa Kyoto [1] is -0.0914. The melting temperature came out at 61.8 °C with HeLa Kyoto [2] (cell cycle stage: G1/S) and 60.1 °C with HeLa Kyoto [2] (cell cycle stage: mitosis). Besides, the thermal stability score in the series with HeLa Kyoto [3] (setting [5]) is -3.36; in the series on HeLa Kyoto [3] (cell cycle stage: mitosis), -2.81. Also, in the series on HeLa Kyoto [4], the “solubility in G1/S (log2)” value amounted to 0.148.
For the sequence “METESGNQEKVMEEESTEKKKEVEKKKRSRVKQVLADIAKQVDFWFGDANLHKDRFLREQIEKSRDGYVDISLLVSFNKMKKLTTDGKLIARALRSSAVVELDLEGTRIRRKKPLGERPKDEDERTVYVELLPKNVNHSWIERVFGKCGNVVYISIPHYKSTGDPKGFAFVEFETKEQAAKAIEFLNNPPEEAPRKPGIFPKTVKNKPIPALRVVEEKKKKKKKKGRMKKEDNIQAKEENMDTSNTSISKMKRSRPTSEGSDIESTEPQKQCSKKKKKRDRVEASSLPEVRTGKRKRSSSEDAESLAPRSKVKKIIQKDIIKEASEASKENRDIEISTEEEKDTGDLKDSSLLKTKRKHKKKHKERHKMGEEVIPLRVLSKSEWMDLKKEYLALQKASMASLKKTISQIKSESEMETDSGVPQNTGMKNEKTANREECRTQEKVNATGPQFVSGVIVKIISTEPLPGRKQVRDTLAAISEVLYVDLLEGDTECHARFKTPEDAQAVINAYTEINKKHCWKLEILSGDHEQRYWQKILVDRQAKLNQPREKKRGTEKLITKAEKIRLAKTQQASKHIRFSEYD [LARP7]”, the “solubility change mitosis (log2)” value with HeLa Kyoto [1] was found to be 0.194. In addition, the melting temperature was determined as 48.8 °C in the series with HeLa Kyoto [2] (cell cycle stage: G1/S) and 50.1 °C in the series with HeLa Kyoto [2] (cell cycle stage: mitosis). Besides, the thermal stability score in the series on HeLa Kyoto [3] (setting [5]) is 0.456; in the series with HeLa Kyoto [3] (cell cycle stage: mitosis), 1.1. Also, the “solubility in G1/S (log2)” value in the series with HeLa Kyoto [4] is -0.53.
